Source: the supplement of paper PMC10266784

B1: library; numbered along this chain (parent)
chain: MAAAAAAAAEQQSSNGPVKKSMREKAVERRSVNKEHNSNFKAGYIPIDEDRLHKTGLRGRKGNLAICVIILLFILAVINLIITLVIWAVIRIGPNGCDSMEFHESGLLRFKQVSDMGVIHPLYKSTVGGRRNENLVITGNNQPIVFQQGTTKLSVENNKTSITSDIGMQFFDPRTQNILFSTDYETHEFHLPSGVKSLNVQKASTERITSNATSDLNIKVDGRAIVRGNEGVFIMGKTIEFHMGGNMELKAENSIILNGSVMVSTTRLPSSSSGDQLGSGDWVRYKLCMCADGTLFKVQVTSQNMGCQISDNPCGNTH

Variants of: B1
Test: SGCB cell-surface expression functional score (HA stain, bin4 vs bin1, normalised to synonymous) (log10 ratio); higher = more cell-surface SGCB (functional)
Method in brief: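 HEK293 cells stably expressing alpha-, gamma- and delta-sarcoglycan received codon-saturation libraries of HA-tagged, YFP-fused human beta-sarcoglycan by lentiviral transduction at MOI <0.1, performed in duplicate. Cells positive for YFP were sorted after 72 hours and cultured for 5–7 days, then stained on ice with Alexa Fluor 647 anti-HA and fixed. Fixed cells were sorted into four 5% intensity bins and amplicon-sequenced, and the log ratio of highest-bin to lowest-bin variant frequency, as a median over codons and transductions, gives the functional score. Per section, synonymous variants were scaled to mean 0, SD 0.5.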

| Variant | SGCB cell-surface expression functional score (log10) |
| --- | --- |
| R29P | 0.32 |
| Q12A | 0.29 |
| W282F | 0.36 |
| V226I | 0.04 |
| Q299D | 0.16 |
| G62A | 0.02 |
| M22C | 0.56 |
| L64Y | 0.16 |
| K250Q | 0.65 |
| K202I | -0.27 |
| V68S | 0.36 |
| L277S | -0.88 |
| D172C | 0.95 |
| Y44E | 0.75 |
| E248T | 0.54 |
| R58Y | 0.71 |
| D165F | 0.07 |
| M243K | -0.64 |
| I137D | -1.25 |
| R223C | 0.4 |
| C290H | -0.47 |
| F296Y | 0.25 |
| I119W | -1.04 |
| N312D | 0.1 |

| Variant | SGCB cell-surface expression functional score (log10) |
| --- | --- |
| V263L | 0.09 |
| H103P | -0.42 |
| R223G | 0.12 |
| D172I | -1.04 |
| D215G | -0.26 |
| E252F | 1.22 |
| I309L | 0.13 |
| S181C | -0.89 |
| N79S | -0.15 |
| C290Y | -0.57 |
| G293P | -0.23 |
| I225N | 0.09 |
| L277E | 0.02 |
| I225K | 0.58 |
| W282C | -0.37 |
| G231E | 0.17 |
| N140M | -0.05 |
| N199C | -0.28 |
| T238Y | -0.01 |
| G245D | 0.77 |
| F102W | -0.12 |
| V68E | -0.1 |
| S260N | 0.25 |
| K41M | 0.55 |

| Variant | SGCB cell-surface expression functional score (log10) |
| --- | --- |
| H103E | -0.33 |
| H103V | 0.29 |
| P269G | 0.44 |
| P173T | -0.17 |
| W282P | 0.15 |
| A5S | 0.1 |
| D165K | -0.75 |
| Q176D | 0.07 |
| A65V | 0.3 |
| P121S | 0.12 |
| K25S | 0.46 |
| G96Y | -2.29 |
| V18H | -0.54 |
| E156A | -0.03 |
| G306Y | -1.16 |
| R207K | -0.81 |
| T301W | 0.96 |
| F146M | -0.56 |
| F40C | 0.25 |
| T175M | -0.5 |
| V195L | -0.39 |
| L80Y | 0.27 |
| G278P | 0.23 |
| K297S | -0.17 |

| Variant | SGCB cell-surface expression functional score (log10) |
| --- | --- |
| F40L | -0.13 |
| I78K | 0.05 |
| A88G | 0.19 |
| R207T | -0.69 |
| V300H | -0.8 |
| L198R | -2.21 |
| D292H | -0.19 |
| S210D | -0.42 |
| F296V | -0.33 |
| Q308S | -0.37 |
| D221P | 0.1 |
| T265I | 0.58 |
| V127K | -1.2 |
| L75W | 0.39 |
| S214L | -1.06 |
| A88S | 0.49 |
| A251L | -1.06 |
| L277V | -0.49 |
| R267W | -0.83 |
| K19D | 0.06 |
| G106W | -0.87 |
| G93Q | -0.8 |
| V300A | -0.02 |
| E230N | 0.82 |

| Variant | SGCB cell-surface expression functional score (log10) |
| --- | --- |
| F146N | -1.08 |
| I309G | -0.41 |
| T126S | 0.02 |
| G236A | 0.11 |
| Y44L | 0.55 |
| I45P | 0.52 |
| R223A | 0.72 |
| I144Q | -0.96 |
| G43N | 0.18 |
| E230G | 0.43 |
| D172E | 0.42 |
| T205M | -0.07 |
| K19T | -0.07 |
| C307R | -0.37 |
| D215R | -0.63 |
| F189A | -0.91 |
| V18Y | 0.14 |
| S99R | -1.61 |
| S164N | -0.99 |
| R227D | 0.42 |
| T151M | -1.13 |
| H120V | -0.04 |
| G244L | 0.86 |
| P46R | -0.18 |

| Variant | SGCB cell-surface expression functional score (log10) |
| --- | --- |
| G167F | -1.3 |
| A291E | -0.98 |
| S197Q | 0.43 |
| N15G | 0.04 |
| A7L | 0.13 |
| F110A | -1.33 |
| T238S | 0.64 |
| A76D | -0.4 |
| Q11L | 0.04 |
| G59Y | 0.17 |
| I74L | 0.44 |
| S114V | -0.22 |
| V283E | 0.19 |
| G128H | -0.22 |
| F102K | -1.02 |
| M243I | 0.18 |
| Q11G | 0.64 |
| G259L | -0.06 |
| F170A | -0.27 |
| S105I | -0.75 |
| A6L | -0.21 |
| R109T | 0.26 |
| L107F | -0.29 |
| L295D | -1.13 |

| Variant | SGCB cell-surface expression functional score (log10) |
| --- | --- |
| L135G | -1.2 |
| K41Q | 0.4 |
| R23Y | 0.05 |
| M22E | 0.07 |
| K34V | 0.44 |
| I78A | 0.15 |
| Q142F | 0.14 |
| K219H | 0.53 |
| M1C | 0.25 |
| K54Y | 0.29 |
| M247G | 0.38 |
| K20P | 0.39 |
| I92P | -1.96 |
| L122G | 0.45 |
| T294W | 0.57 |
| S21T | 0.07 |
| A88C | -0.27 |
| Q276C | -1 |
| A26M | 0.77 |
| N246R | 0.2 |
| S210P | -1.92 |
| Q303E | 0.08 |
| Y44M | 0.39 |
